Patent US20120264616A1

Target: receptor for IFN λ expressed by reporter HL116 cells (UniProt Q8IU57)
Experiment: cell-based or functional assay

UniProt Q8IU57, sequence (Q8IU57 21-520 limits assumed): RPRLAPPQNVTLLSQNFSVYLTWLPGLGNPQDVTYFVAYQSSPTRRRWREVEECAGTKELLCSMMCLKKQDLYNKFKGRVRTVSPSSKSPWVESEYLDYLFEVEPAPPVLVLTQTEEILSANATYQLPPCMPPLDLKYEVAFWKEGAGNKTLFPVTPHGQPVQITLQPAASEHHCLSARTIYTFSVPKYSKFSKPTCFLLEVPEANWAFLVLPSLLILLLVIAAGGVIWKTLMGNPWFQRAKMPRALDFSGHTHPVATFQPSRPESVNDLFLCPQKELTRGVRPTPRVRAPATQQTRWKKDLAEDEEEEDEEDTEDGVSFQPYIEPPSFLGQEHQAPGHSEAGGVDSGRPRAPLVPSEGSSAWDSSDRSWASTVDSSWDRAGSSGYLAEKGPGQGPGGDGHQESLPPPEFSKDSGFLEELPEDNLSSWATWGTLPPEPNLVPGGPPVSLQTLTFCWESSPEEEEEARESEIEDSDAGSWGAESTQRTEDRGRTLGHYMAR

## interferon lambda (IFN λ) secreted into the culture supernatant by 293T cell clones transduced with parental lentiviral particles (ligand)
  Luc exp 1, clone 1: 68.2
  Luc exp 1, clone 2: 73.2
  Luc exp 1, clone 3: 80.8
  Luc exp 1, clone 4: 84.3
  Luc exp 1, clone 5: 100
  Luc exp 1, clone 6: 77.7
  Luc exp 1, clone 7: 90.9
  Luc exp 1, clone 8: 88.9
  Luc exp 1, clone 9: 78.7
  Luc exp 1, clone 10: 89.8
  Luc exp 1, clone 11: 95.4
  Luc exp 1, clone 12: 77.2
  Luc exp 1, clone 13: 94.4
  Luc exp 1, clone 14: 89.2
  Luc exp 1, clone 15: 87.6
  Luc exp 1, clone 16: 81.4
  Luc exp 1, clone 17: 79.9
  Luc exp 2, clone 1: 68.8
  Luc exp 2, clone 2: 66.3
  Luc exp 2, clone 3: 87.3
  Luc exp 2, clone 4: 88.1
  Luc exp 2, clone 5: 97.8
  Luc exp 2, clone 6: 88.3
  Luc exp 2, clone 7: 95.1
  Luc exp 2, clone 8: 107
  Luc exp 2, clone 9: 99.2
  Luc exp 2, clone 10: 86.9
  Luc exp 2, clone 11: 75.8
  Luc exp 2, clone 12: 91.6
  Luc exp 2, clone 13: 94.8
  Luc exp 2, clone 14: 72.9
  Luc exp 2, clone 15: 87.8
  Luc exp 2, clone 16: 77.2
  Luc exp 2, clone 17: 71.7
  Luciferase average, clone 1: 68.2
  Luciferase average, clone 2: 69.7
  Luciferase average, clone 3: 84
  Luciferase average, clone 4: 86.3
  Luciferase average, clone 5: 99
  Luciferase average, clone 6: 83
  Luciferase average, clone 7: 93
  Luciferase average, clone 8: 97.9
  Luciferase average, clone 9: 89
  Luciferase average, clone 10: 88.3
  Luciferase average, clone 11: 85.6
  Luciferase average, clone 12: 84.4
  Luciferase average, clone 13: 94.6
  Luciferase average, clone 14: 81.1
  Luciferase average, clone 15: 87.7
  Luciferase average, clone 16: 79.3
  Luciferase average, clone 17: 75.8
